Measurements reported in the nanobody polyreactivity screen of Harvey et al. (2022).

Assay: yeast display, Sf9 membrane polyspecificity reagent, FACS + sequencing; frameworks hold sequencing errors
Method in brief: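 Synthetic nanobody libraries on Saccharomyces cerevisiae BJ5465 were galactose-induced for 36–48 hours, stained 1 hour at 4 °C with 10% biotinylated, detergent-solubilized Sf9 membrane reagent and enriched on streptavidin microbeads. FACS then separated cells into low and high (top ~1%) gates by anti-HA (expression) and streptavidin (reagent binding) fluorescence. Genes were colony-PCR amplified, MiSeq 2 × 250 sequenced and CDR-length filtered. A clone's polyreactivity label is that of its gate of origin.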

| Sequence | polyreactivity (PSR sort gate) |
| --- | --- |
| QVQLVESGGGLVQAGGSLRLSCAASGYIFNSNTMGWYRPAPGKERELVAAITSSGGRTNYADSVKGRFTISRDNAKNTVYLQMNSLKPEDTAVYYCATRVYYRAGRYKYDYWGQGTQVTVSS | high polyreactivity |
| QVQLEESGGGIVQAGGSLRLSCAASGSTFGVYAMGWYRQAPGKERELVAAISSSTGSTYYADSVKGRFTISRDNAKNTVYLQMNSLKPEYTAVYYCAAAGYGKVRGDYWGQGTQVTVSS | low polyreactivity |
| QVQLVESGGGLVQAGGSLRLSCAASGFIFHRNAMGWYRQAPGKERELVAAITRSSTSTYYADSVKGRFTISRDNAKNTVYLQMNSLKPEDTAVYYCNARYPSADDWGQGTQVTVSS | high polyreactivity |
| QVQLVESGGGLVQAGGSLRLSCAASGRTFWFYSMAWYRQAPGKERELVATINYRGGTTYYADSVKGRFTISRDNAKNTVYLQMNSLKPEDTAVYYCAVRPTRTFIYDYWGQGTQVTVSS | high polyreactivity |
| QVQLVESGGGLVQAGGSLRLSCAASGSIFLYKAMGWYRQAPGKERELVADITSRGGSTYYADSVKGRFTISRDNAKNTVYLQMTSLKPEDTAVYDCNAVSRYVYGNGKNYYWGQGTHVTVSS | high polyreactivity |
| QVQLVESGGGLVQAGGSLRLSCAASGRIFSYAMGWYRQAPGKERELVAAINWSGDSTYYADSVKGRFTISRDNAKNTVYLQMNSLKPEDTAVYYCNAVSAYWGAYGYWGQGTQVTVSS | high polyreactivity |
| QVQLLESGGGLVQAGGSLRLICAASGLIFGPYTMGWYRQAPGKERELVAAITRSGGRTYYADSVKGRFTISRDNAKNTVYLQMNRLKPEDTAVYYCAAYGGQSWDYDYWGQGTQVTVSS | high polyreactivity |
| QVQLQESGGGLVQAGGSLRLSCAASGTIFWLWAMGWYCKAPGKERELVASISSGGTTYHADSVKGRFTISRDNAKNTVYLQMNSLKPEDTAVYYSAAFYVATAKLGYWGQGSQVTVSS | low polyreactivity |
| QVQLVESGGGLVQAGGSLRLSCAASGSTFYKYGMGRNTQAHGKERELVAAISGSGDSTYYADSVKGRFTISRDNAKNSVYLQMNSLKPEDTAVYYCNAGPWCYLHEYDYWGQGTQVTVSS | low polyreactivity |
| QVQLVESGGGLVQAGGSLRLSCAASGISFRRYTMGSYRQAPGKERELVDTISLSDGNTYYADSVKGRFTISRDNAKNTVYLQMNSMKPEDTAVYYCNARHTWHQSYDYWGQGTQVSVSS | low polyreactivity |
| QVQLVESGGGLVQAGGSLRLSCAASGSIFSYYAMGWYRQAPGKERELVAAISYSGSDTYYADSVKGRFTISRDNAKNTVYLQMNSLKPEDTAVYYCAAEDPSYSYDYWGQGTQVTVSS | low polyreactivity |
| QVQLVESGGGLVQAGGSLRLSCAASGFTFWRNAMGLYRQAPGKERELDAAISWRGGSTYYADCVKGRFTISRDNAKNTVYFQMNSLKPEDTAVYYCNVVYFRYYSGEFDYWGQGTQVTVSS | high polyreactivity |
| QVQLVESGGGLVQAGGSLRLSCAASGSTIFGNVMGWYRQAPGKERELVAAISKTGGNTYYADSVKGRFTISRDNAKNTVYLQMNSLKPEDTAVYYCNALRGDWRDMGYWGQGTQVTVSS | high polyreactivity |
| QVQLVESGGGLVQAGGSLRLSCAASGSIFEGNAMGWYRQAPGKEREFVAAITKRGGSTYYADSVKGRFTISRDNAKITVYLQMNSLKTEDTAVYYCAKGYRRVFGPFYYWGQGTQVTVSS | low polyreactivity |
| QVQLVESGGGLVQAGGSLRLSCAASGSIFGSYAMGWSRQAPGKERELVAAISKSGGNTYYADSVKGRFTISRDNAKNTVYLQMNSLKPEDTAVYYCAAYGFYRWRGYDYWGQGTQVTVSS | high polyreactivity |
| QVQLVESGGGLVQAGCSLRISCAASGSTFYPYAMGWYRQAPGKERELVAAISSGGSTYYADSVKGRFTISRDNAKNTVYLQMNSVKPEDTAVYYCAADFYYAYYWGQGTQVTVSS | low polyreactivity |
| QVQHVESGGGLVQAGGSLRLSCAASGFTYVVYDMGWYRPAPGKERELVAVITNSGGSTYYADSEKGRFTISRDNAKNTVYLQMNSLKPEDTAVYYCNTENFYGSDIFDSWGQGTQVTVSS | low polyreactivity |
| QLQLVESVGGLVQAGGSLRLSCASSGRTFDYNAMGWYRQAPGKERELVARISNGDSTYADSVKGRFTISRDNAKNTVYLQMNSLKPVDTAVYYCAKSTRRGGVALGEYDYWGQGTQVTVSS | low polyreactivity |
| QVQLVESGGGLVQAGGSLRLSCAASGIILDTYDMGWYRQAPGKERELVAVISWRGRTYYADSVKGRFTISRDNAKNTVYLQMNSLKPEDTAVYYCAAYSYRSVRWGWTSYDYWGQGTQVTVSS | high polyreactivity |
| QVQHVESGGGLVQAGGSLRLSCAASGRTFSWYVMGWYRQSPGKERELVAAISWNGGRTYYADSVKGRFTISRDNAKNTVYLQMNSLKPEDTAVYYCAAKSYHGYPFDYWGQGTQVTVSS | high polyreactivity |
| QVQLVESGGGIVQAGGSLRLSCAASGSIDWNAKGWYRQAPGKEREFVAAISSSGGRTSYADSVKGRFTISRDNAKNTVYLEMNSLKPEDTAVYYGAAAGSYDGDRYYYWGQGTQVTVSS | high polyreactivity |
| QVQLVESGGGLVQAGGSLRLSCAASGRTFSTNAMGWYIQAPGKEREFVAAITGSGGSTYYADSVKGRFTISRDNAKNTVYLQMNSLKPEDTAVYYCAADRPGSRFIDVDYWGQGTQVTVSS | high polyreactivity |

| Sequence | polyreactivity (PSR sort gate) |
| --- | --- |
| QVQLVESGGGVVQAGGSLRLSCAAYGFIYKQNAMGWYRQAPGKERELVATITRGGDTKYADSVKGRFTISRDNAKNTVYLLMNSLKPEDTAVEYCAARYTPSSSIYRFYNFYGYDYWGQGTQVIVSS | high polyreactivity |
| QVQLVESGGGLVQAGGSLRLSCAASGIIFTSYAMGWYRQAPGKEREFVAGISVRGSSTYYADSVKGRFTISRDNAKNTVYLQMNSLKAEDTAVYYCAARTPSRYLYYEYDYWGQGTQVTVSS | low polyreactivity |
| QVQLVESGGGLVQAGGSLRLSCAASGFTFVGNAMGWYRQAPGKARELVAAIRWTDGSTYYADSVKGRFTISRDNAKNTVYLHMNSLKPEDTAVYYCAKDYRDYARAGDYNVKQADDYWGQGTQVTVSS | low polyreactivity |
| QVQLVESGGGLVQAGGSLRLSCAASGFTCSQNAMGWYRQAPGKERELVAAITGHGGSTYYADSVKGRFTISRDNAKNTVYLQMNSLKPEDTAVYYCAADVYAVHAPQSDYWTKYDYWGQGTQVTVSS | low polyreactivity |
| QVQLQESGGGLVQAGGSLRLSSAASGSIIQYGYMGWYRQAPGKEREFVAGIGGGTSNYADSVKGRFTMSRDNAKNTVYLQMNSLKPEDTAVYYCNTDAGDYYGENYWGQGTQVTVSS | low polyreactivity |
| QVQLVESGGGLVQAGGSLRLSCAASGRTFNYYAMGWYRQAPGKERELVAAISWSGTPTYYADSVKGRFTISRDHAKNTVYLQMNSLKPEDTAVYYCAAYLVSYPRGNYIRYDYWGQGTQVTVSS | low polyreactivity |
| QVQLVESGGGLVQAGGSLRLTCAASGYKFKSNVMGWYRQAPGKERELVAAISWSGGRTYYADSLKGRFTISRDNAKNTVYLQMNSLKPEDTAVYYCAAVGRQSNYYVDYDYWGQGTQVTVSS | high polyreactivity |
| QVQLVESGGGLVQAGGSLRLSCAASGRIFALYAMGWYRQAPGKERELVASINGSSGSTYYADSVKGRFTISRDTAKNTVYLQMNSLKPEDTAVYYCAKKYYGVKFYWGQGTQVTVSS | low polyreactivity |
| QVQLVESGGGLVQAGGSLRLCCAACGRIFYAYAMGWYRQAPGKERELVAAISSSGGRTYYADSVKGRFTISRDNAKNTVYLQMNSLKPEDTAVYYSAAVHYYKFEWGQRTQVTVSS | high polyreactivity |
| QVQLVESGGGLVQAGGSLRLSCAASGITFVHYVMGWYRQAPGKERELVAVITKGGARTSYADSVKGRFTISRDNAKNTVYLQMNSLKPEDTAVYYCAAREVYPLFTKYYYWGQGTQVTVSS | high polyreactivity |
| QVQLVESGGGLVQAGGSLRLSCAASGFIFYFYAMGWYRQATGKEMELVAAISDGVSTYYADSVKGRFTISRDNAKNTVYLQMNCLKPEDTAVYYCAVSRGDDPEFDYWGQGTQVTVSS | low polyreactivity |
| QVQLVELGGGLVQAGGILRLSCAASGSIFSWNDMGWYRQAPGKERELVAAITSGGSTYYADSVKGRFTISRDNAKNTVYLQMNSLKPEDTAVYYCAAGQDLHDFDYWGQGTQVTVSS | low polyreactivity |
| QVQLVESWGGLVQAGGSLRLSCAASGRTLGYNAMGWYRQAPGKERELVATISYNGGRTYYADSVKGRFTISRDNAKNTVYLQMNSLKPEDTAVYYCNTRYRWIRRSLFDYWGQGTQVTVSS | high polyreactivity |
| QVQLVESGGGLVQAGGSLRLSCAASGSIFRVYAMGWYRQAPGKERELVAAITNGGNTNYADSVKGRFTISRDNAKNTVYLQMNSLKPEDTAVYYCAADPLRTPGARHTPYKGTYDYWGQGTQVTVSS | high polyreactivity |
| QVQLVESGGGLVQAGGSLRLSCAASGSIFASYVMGWYRQAPGKERELVAAITSRGTSTYYADSVKGRFTISRDNAKNTVYLHMNSLNPEDTAVYYCAARLYGSAPQHEYWGQGTQVTVSS | low polyreactivity |
| QFQLVESCRGLVQAGGSLRLSCAASGFTFRANGMGWYRQAPGKERELVATITSGGTTNYADSVKGRFTISRDNAKNTVYLQMNSLKREDTAVYYCAKRFGPAYFRLYDYWGQGTQVTVSS | low polyreactivity |
| QVELVESGGGLVQGGGTLRLSCAASGRTFNRYAMGWYRQAPGKERELVASITRSGGSTYYADSVKGRFTISRENAKNTVSLQMNSLKPDHTAVYYCANRSSGCFGYWGQGTQVTLSS | high polyreactivity |
| QVQLVESGGGLVQARRSLRLSCAASGNIFWRNAMGWYRQAPGKERELVAAISRRAVSTYYADSVKGRFTISRDNAKNTVYLQMNSLKPEDTAVYYCAARLGGENDYWGQGTQVTVSS | high polyreactivity |
| QVQLVESGGGLVQAGGSLRLSCAASGSTFTINAMGWYRQAPGKERELVAAISRSGGSTFYADSVKGRFTISRDNAKNTVYLQMNSLKPEDTAVYYCAAGYRGTAYRYGYCGQGTQVTVSS | high polyreactivity |
| QVQIVDSGGGLVQAGGSLRLSCAASGNIFAWYAMGWYTQAPGQVRELVAAINWSRGSTYYADSVKGRFTISRDNAKNTVYLQMNSLKPEDTAVYYCNAVFQDRTDDYDYWGQGTQVTLSS | low polyreactivity |
| QVQLVESGGGLVQAGGSLRLSCDASGSIFATYAMGWYRQAPGKERELVAAIRRSTGTTYYADSVKGRFTISRDNAKNTVYLQMNSLKPEDTAVYYCAALFRPRVHRYDYWGQGTLVTVSS | low polyreactivity |
